Paper PMC6327041, “Histone H3 binding to the PHD1 domain of histone demethylase KDM5A enables active site remodeling” (Nature Communications, 2019)

Key:
[1] = target: C-terminally 5-carboxyfluorescein (5-FAM) conjugated Ac-H3K4me3 31mer peptide; experiment: fluorescence polarisation; direct FP: Ac-H3K4me3-fluorescein 31mer with varying KDM5A_(1-797); 400 µM MnCl2 and 400 µM N-OG; no effector peptide; Kd read at 1 min (the signal decreases over time)
[2] = target: C-terminally 5-carboxyfluorescein (5-FAM) conjugated Ac-H3K4me3 31mer peptide; experiment: fluorescence polarisation; direct FP: Ac-H3K4me3-fluorescein 31mer with varying KDM5A_(1-797); 400 µM MnCl2 and 400 µM N-OG; with 350 µM H3 10mer effector peptide; Kd read at 1 min (the signal is stable for at least 1 h)
[3] = substrate: C[C@H](N)C(=O)N[C@@H](CCCNC(=N)N)C(=O)N[C@H](C(=O)N[C@@H](CCCC[N+](C)(C)C)C(=O)N[C@@H](CCC(N)=O)C(=O)N[C@H](C(=O)N[C@@H](C)C(=O)N[C@@H](CCCNC(=N)N)C(=O)N[C@@H](CCCCN)C(=O)N[C@@H](CO)C(=O)O)[C@@H](C)O)[C@@H](C)O; experiment: KDM5A demethylation, FDH-coupled formaldehyde release assay; format: biochemical, human; settings: other: H3K4me3 10mer as substrate (Figure S3, response to reviewers)
Description: WT KDM5A1-797 was expressed in Sf21 cells following Invitrogen Bac-to-Bac baculovirus expression system protocol. KDM5A1-797 was cloned into a pFASTBAC HTA vector. Purified bacmid was transfected in Sf21 cells. Approximately 0.8 × 10^−5 cells per well of a six-well dish were allowed to attach in 2 ml of SF-900 II SFM media containing 50 U ml^−1 penicillin and 50 μg ml^−1 streptomycin. While cells attached, 8 μl of Cellfectin II reagent (Invitrogen) in 100 μl of unsupplemented Grace’s medium was mixed with ~2–5 μg of bacmid in 100 μl of unsupplemented Grace’s medium and incubated for 15–30 min at 25 °C. Once cells were attached, media was removed and cells were washed with 2 ml of Grace’s unsupplemented media. The bacmid DNA:Cellfectin mixture was then diluted to 1 ml with Grace’s unsupplemented media and added to the well. Cells with bacmid:Cellfectin II mixture were incubated for 5 h at 27 °C. After 5 h of incubation, bacmid:Cellfectin mixture was removed and replaced with 2 ml of SF-900 II SFM 50 U ml^−1 penicillin and 50 μg ml^−1 streptomycin. […]
Reactions were performed in 50 mM HEPES, 50 mM KCl, 1 mM α-ketoglutarate, 50 μM Fe(NH4)2(SO4)2, 2 mM ascorbic acid, 2 mM NAD^+ and 0.05 U FDH (Sigma) at pH 7.5 at room temperature. […] An NADH standard curve was used to convert fluorescence to concentration of product formed. […] Michaelis–Menten parameters were determined using Graphpad Prism.

Row | Binder | Kd [1] [µM] | Kd [2] [µM] | Km [3] [µM]
1 | KDM5A_(1-797) (enzyme) MAGVGPGGYAAEFVPPPECPVFEPSWEEFTDPLSFIGRIRPLAEKTGICKIRPPKDWQPPFACEVKSFRFTPRVQRLNELEAMTRVRLDFLDQLAKFWELQGSTLKIPVVERKILDLYALSKIVASKGGFEMVTKEKKWSKVGSRLGYLPGKGTGSLLKSHYERILYPYELFQSGVSLMGVQMPNLDLKEKVEPEVLSTDTQTSPEPGTRMNILPKRTRRVKTQSESGDVSRNTELKKLQIFGAGPKVVGLAMGTKDKEDEVTRRRKVTNRSDAFNMQMRQRKGTLSVNFVDLYVCMFCGRGNNEDKLLLCDGCDDSYHTFCLIPPLPDVPKGDWRCPKCVAEECSKPREAFGFEQAVREYTLQSFGEMADNFKSDYFNMPVHMVPTELVEKEFWRLVSSIEEDVIVEYGADISSKDFGSGFPVKDGRRKILPEEEEYALSGWNLNNMPVLEQSVLAHINVDISGMKVPWLYVGMCFSSFCWHIEDHWSYSINYLHWGEPKTWYGVPSHAAEQLEEVMRELAPELFESQPDLLHQLVTIMNPNVLMEHGVPVYRTNQCAGEFVVTFPRAYHSGFNQGYNFAEAVNFCTADWLPIGRQCVNHYRRLRRHCVFSHEELIFKMAADPECLDVGLAAMVCKELTLMTEEETRLRESVVQMGVLMSEEEVFELVPDDERQCSACRTTCFLSALTCSCNPERLVCLYHPTDLCPCPMQKKCLRYRYPLEDLPSLLYGVKVRAQSYDTWVSRVTEALSANFNHKKDLIELRVMLEDAEDRKYPENDLFRKLRDAVKEAETCASV | 56.9 | 62.5 | –
2 | KDM5A1-797 (Homo sapiens) (protein, KDM5A1-797 was cloned into a pFASTBAC HTA vector; His (N, cleaved yes); made in house; host or cells: Sf21 insect cells (baculovirus)) MAGVGPGGYAAEFVPPPECPVFEPSWEEFTDPLSFIGRIRPLAEKTGICKIRPPKDWQPPFACEVKSFRFTPRVQRLNELEAMTRVRLDFLDQLAKFWELQGSTLKIPVVERKILDLYALSKIVASKGGFEMVTKEKKWSKVGSRLGYLPGKGTGSLLKSHYERILYPYELFQSGVSLMGVQMPNLDLKEKVEPEVLSTDTQTSPEPGTRMNILPKRTRRVKTQSESGDVSRNTELKKLQIFGAGPKVVGLAMGTKDKEDEVTRRRKVTNRSDAFNMQMRQRKGTLSVNFVDLYVCMFCGRGNNEDKLLLCDGCDDSYHTFCLIPPLPDVPKGDWRCPKCVAEECSKPREAFGFEQAVREYTLQSFGEMADNFKSDYFNMPVHMVPTELVEKEFWRLVSSIEEDVIVEYGADISSKDFGSGFPVKDGRRKILPEEEEYALSGWNLNNMPVLEQSVLAHINVDISGMKVPWLYVGMCFSSFCWHIEDHWSYSINYLHWGEPKTWYGVPSHAAEQLEEVMRELAPELFESQPDLLHQLVTIMNPNVLMEHGVPVYRTNQCAGEFVVTFPRAYHSGFNQGYNFAEAVNFCTADWLPIGRQCVNHYRRLRRHCVFSHEELIFKMAADPECLDVGLAAMVCKELTLMTEEETRLRESVVQMGVLMSEEEVFELVPDDERQCSACRTTCFLSALTCSCNPERLVCLYHPTDLCPCPMQKKCLRYRYPLEDLPSLLYGVKVRAQSYDTWVSRVTEALSANFNHKKDLIELRVMLEDAEDRKYPENDLFRKLRDAVKEAETCASV | – | – | 770
